Patent publication US20040180354A1 (MANNKIND, published 2004)

Key:
[1] = molecular target: T1, HLA-A2.1 (HLA-A*0201) on the surface of T2 cells (human); assay: T2 cell HLA-A*0201 stabilisation, flow cytometry
T1 construct: MHC class I molecule on T2 cells

[2] = molecular target: T1, HLA-A2.1 (HLA-A*0201) on the surface of …; assay: HLA-A2 binding assay, FACS profiles (T2 cells); the weaker of the two 9-mers
[3] = molecular target: T1, HLA-A2.1 (HLA-A*0201) on the surface of …; assay: HLA-A2 binding assay, FACS profiles (T2 cells)
[4] = molecular target: T1, HLA-A2.1 (HLA-A*0201) on the surface of …; assay: T2 cell HLA-A2.1 stabilisation, flow cytometry with FITC anti-HLA A2, A28

B1: PSMA663-671 (SEQ ID NO. 66) (peptide)
peptide: MMNDQLMFL
notes: Synthetic 9-mer from prostate specific membrane antigen
- binding result [1]: binds

B2: tyrosinase208-216, LPWHRLFLL (peptide)
peptide: LPWHRLFLL
notes: Synthetic 9-mer from tyrosinase; also called Tyr 208-216
- binding result [2]: binds

B3: tyrosinase207-215, FLPWHRLFL (peptide)
peptide: FLPWHRLFL
notes: Synthetic 9-mer from tyrosinase; also called Tyr 207-215
- binding result [3]: binds

Binder: KASEKIFYV (also called 15) [SSX-2 41-49, KASEKIFYV]
- binding result [4]: binds
